The source of these data is US20170275366A1 (Pfizer, published 2017).

B1: 139-V5 CAR (other)
chain: DIQMTQSPSSLSASVGDRVTITCRASQGIRNNLAWYQQKPGKAPKRLIYAASNLQSGVPSRFTGSGSGTEFTLIVSSLQPEDFATYYCLQHHSYPLTSGGGTKVEIKGGGGSGGGGSGGGGSEVQVLESGGGLVQPGGSLRLSCAASGFTFSSYAMSWVRQAPGKGLEWVSAISGSGGSTNYADSVKGRFTISRDNSKNTLYLQMNSLRAEDTAVYYCAGSSGWSEYWGQGTLVTVSSEPKSPDKTHTCPPCPAPPVAGPSVFLFPPKPKDTLMIARTPEVTCVVVDVSHEDPEVKFNWYVDGVEVHNAKTKPREEQYNSTYRVVSVLTVLHQDWLNGKEYKCKVSNKALPAPIEKTISKAKGQPREPQVYTLPPSRDELTKNQVSLTCLVKGFYPSDIAVEWESNGQPENNYKTTPPVLDSDGSFFLYSKLTVDKSRWQQGNVFSCSVMHEALHNHYTQKSLSLSPGKKDPKIYIWAPLAGTCGVLLLSLVITLYCKRGRKKLLYIFKQPFMRPVQTTQEEDGCSCRFPEEEEGGCELRVKFSRSADAPAYQQGQNQLYNELNLGRREEYDVLDKRRGRDPEMGGKPRRKNPQEGLYNELQKDKMAEAYSEIGMKGERRRGKGHDGLYQGLSTATKDTYDALHMQALPPR
notes: Chimeric antigen receptor on the surface of primary T cells; also called CARs 139-V5; 25
B2: 139-V3 CAR (other)
chain: DIQMTQSPSSLSASVGDRVTITCRASQGIRNNLAWYQQKPGKAPKRLIYAASNLQSGVPSRFTGSGSGTEFTLIVSSLQPEDFATYYCLQHHSYPLTSGGGTKVEIKGGGGSGGGGSGGGGSEVQVLESGGGLVQPGGSLRLSCAASGFTFSSYAMSWVRQAPGKGLEWVSAISGSGGSTNYADSVKGRFTISRDNSKNTLYLQMNSLRAEDTAVYYCAGSSGWSEYWGQGTLVTVSSTTTPAPRPPTPAPTIASQPLSLRPEACRPAAGGAVHTRGLDFACDIYIWAPLAGTCGVLLLSLVITLYCKRGRKKLLYIFKQPFMRPVQTTQEEDGCSCRFPEEEEGGCELRVKFSRSADAPAYQQGQNQLYNELNLGRREEYDVLDKRRGRDPEMGGKPRRKNPQEGLYNELQKDKMAEAYSEIGMKGERRRGKGHDGLYQGLSTATKDTYDALHMQALPPR
notes: Chimeric antigen receptor on the surface of primary T cells (mRNA transfection); also called CARs 139-V3; 24
B3: MR1-V5 CAR (other)
chain: QVQLQQSGGGLVKPGASLKLSCVTSGFTFRKFGMSWVRQTSDKRLEWVASISTGGYNTYYSDNVKGRFTISRENAKNTLYLQMSSLKSEDTALYYCTRGYSSTSYAMDYWGQGTTVTVGGGGSGGGGSGGGGSDIELTQSPASLSVATGEKVTIRCMTSTDIDDDMNWYQQKPGEPPKFLISEGNTLRPGVPSRFSSSGTGTDFVFTIENTLSEDVGDYYCLQSFNVPLTFGDGTKLEKALEPKSPDKTHTCPPCPAPPVAGPSVFLFPPKPKDTLMIARTPEVTCVVVDVSHEDPEVKFNWYVDGVEVHNAKTKPREEQYNSTYRVVSVLTVLHQDWLNGKEYKCKVSNKALPAPIEKTISKAKGQPREPQVYTLPPSRDELTKNQVSLTCLVKGFYPSDIAVEWESNGQPENNYKTTPPVLDSDGSFFLYSKLTVDKSRWQQGNVFSCSVMHEALHNHYTQKSLSLSPGKKDPKIYIWAPLAGTCGVLLLSLVITLYCKRGRKKLLYIFKQPFMRPVQTTQEEDGCSCRFPEEEEGGCELRVKFSRSADAPAYQQGQNQLYNELNLGRREEYDVLDKRRGRDPEMGGKPRRKNPQEGLYNELQKDKMAEAYSEIGMKGERRRGKGHDGLYQGLSTATKDTYDALHMQALPPR
notes: Chimeric antigen receptor on the surface of primary T cells; It has the MR1 scFv, IgG1 hinge, CD8 alpha TM, 4-1BB and CD3 zeta; also called 27
B4: MR1-V3 CAR (other)
chain: QVQLQQSGGGLVKPGASLKLSCVTSGFTFRKFGMSWVRQTSDKRLEWVASISTGGYNTYYSDNVKGRFTISRENAKNTLYLQMSSLKSEDTALYYCTRGYSSTSYAMDYWGQGTTVTVGGGGSGGGGSGGGGSDIELTQSPASLSVATGEKVTIRCMTSTDIDDDMNWYQQKPGEPPKFLISEGNTLRPGVPSRFSSSGTGTDFVFTIENTLSEDVGDYYCLQSFNVPLTFGDGTKLEKALTTTPAPRPPTPAPTIASQPLSLRPEACRPAAGGAVHTRGLDFACDIYIWAPLAGTCGVLLLSLVITLYCKRGRKKLLYIFKQPFMRPVQTTQEEDGCSCRFPEEEEGGCELRVKFSRSADAPAYQQGQNQLYNELNLGRREEYDVLDKRRGRDPEMGGKPRRKNPQEGLYNELQKDKMAEAYSEIGMKGERRRGKGHDGLYQGLSTATKDTYDALHMQALPPR
notes: Chimeric antigen receptor on the surface of primary T cells; It has the MR1 scFv (VH, (G4S)3 linker, VL), CD8 alpha hinge, CD8 alpha TM, 4-1BB and CD3 zeta; also called 26

The target of the assay is T1, recombinant protein consisting of the extracellular domain of the human EGFRVIII protein fused with a murine … (human; murine, UniProt P00533 25-645).
T1 construct: extracellular domain; It is described in the general methods as the reagent for detecting CAR on T cells by flow cytometry; also called EGFRvIII-mouse Fc detection reagent; not shown: murine IgG1 Fc fragment
Description: flow cytometry of CAR on primary T cells; by the general methods detected through binding of EGFRvIII ECD-mouse IgG1 Fc and a PE anti-mouse Fc antibody. The procedure:
Transduction of T-cells with recombinant lentiviral vectors expression the CAR was carried out three days after T-cell purification/activation. Lentiviral vectors produced by Vectalys SA (Toulouse, France) by transfection of genomic and helper plasmids in HEK-293 cells may be used. Transductions were carried out at a multiplicity of infection of 5. CAR detection at the surface of T-cells is performed using a recombinant protein consisting on the extracellular domain of the human […] protein fused together with a murine IgG1 Fc fragment (produced by LakePharma). Binding of this protein to the CAR molecule is detected with a PE-conjugated secondary antibody (Jackson lmmunoresearch) targeting the mouse Fc portion of the protein, and analyzed by flow cytometry.
In general terms: A flow cytometer gives signals particle by particle.
Consider B1, for which the binding result is listed as “binds”.
As for B2, the binding result is reported as “binds”.
Turning to B3, the binding result was “binds”.
To B4 belongs “binds”.
